Test results from US20170304355A1, “COMPOSITIONS AND METHODS OF USE THEREOF” (priority 2014, published 2017).

Test system: IL-8
Experiment: LPS stimulated IL-8 ELISA in U937 macrophages, PAAG and lactoferrin
Format: cell-based, human
Settings: 100 ng/ml lactoferrin pretreatment 1 hour, LPS stimulation; at 24 hours; FIG. 31

B1: lactoferrin: Lactoferrin, comparator pretreatment at 100 ng/ml (protein, UniProt P02788 20-710, looked up)
Lactotransferrin: GRRRSVQWCAVSQPEATKCFQWQRNMRKVRGPPVSCIKRDSPIQCIQAIAENRADAVTLDGGFIYEAGLAPYKLRPVAAEVYGTERQPRTHYYAVAVVKKGGSFQLNELQGLKSCHTGLRRTAGWNVPIGTLRPFLNWTGPPEPIEAAVARFFSASCVPGADKGQFPNLCRLCAGTGENKCAFSSQEPYFSYSGAFKCLRDGAGDVAFIRESTVFEDLSDEAERDEYELLCPDNTRKPVDKFKDCHLARVPSHAVVARSVNGKEDAIWNLLRQAQEKFGKDKSPKFQLFGSPSGQKDLLFKDSAIGFSRVPPRIDSGLYLGSGYFTAIQNLRKSEEEVAARRARVVWCAVGEQELRKCNQWSGLSEGSVTCSSASTTEDCIALVLKGEADAMSLDGGYVYTAGKCGLVPVLAENYKSQQSSDPDPNCVDRPVEGYLAVAVVRRSDTSLTWNSVKGKKSCHTAVDRTAGWNIPMGLLFNQTGSCKFDEYFSQSCAPGSDPRSNLCALCIGDEQGENKCVPNSNERYYGYTGAFRCLAENAGDVAFVKDVTVLQNTDGNNNEAWAKDLKLADFALLCLDGKRKPVTEARSCHLAMAPNHAVVSRMDKVERLKQVLLHQQAKFGRNGSDCPDKFCLFQSETKNLLFNDNTECLARLHGKTTYEKYLGPQYVAGITNLKKCSTSPLLEACEFLRK
With B1 the IL-8 secretion suppression was “IL-8 secretion suppression”.
